Assay results: publication PMC8141814 (Frontiers in Molecular Biosciences, 2021)

B1: ORF14 (ORF9c) protein, full-length (natural protein)
chain: MLQSCYNFLKEQHCQKASTQKGAEAAVKPLLVPHHVVATVQEIQLQAAVGELLLLEWLAMAVMLLLLCCCLTD
notes: also called OFR14
B2: nsp9, full-length (natural protein)
chain: NNELSPVALRQMSCAAGTTQTACTDDNALAYYNTTKGGRFVLALLSDLQDLKWARFPKSDGTGTIYTELEPPCRFVTDTPKGPKVKYLYFIKGLNNLNRGMVLGSLAATVRLQ
notes: also called fl nsp9

Columns and labels:
[1] = molecular target: the molecule itself; experiment: SEC; SEC profile of cell-free synthesized ORF14 in DDM detergent micelles
[2] = molecular target: the molecule itself; experiment: SEC

| Protein | stoichiometry N [1] | stoichiometry N [2] |
| --- | --- | --- |
| B1 | ~9 | – |
| B2 | – | 2 |
